Experimental data taken from patent US20200317768A1 (published 2020).

T1: Cynomolgus monkey latent myostatin (cynomolgus monkey, UniProt Q95J86 25-266; Q95J86 267-375)
T1 construct: Latent form = complex of two propeptides and the mature dimer; also called Cyno latent myostatin
T1 sequence 1: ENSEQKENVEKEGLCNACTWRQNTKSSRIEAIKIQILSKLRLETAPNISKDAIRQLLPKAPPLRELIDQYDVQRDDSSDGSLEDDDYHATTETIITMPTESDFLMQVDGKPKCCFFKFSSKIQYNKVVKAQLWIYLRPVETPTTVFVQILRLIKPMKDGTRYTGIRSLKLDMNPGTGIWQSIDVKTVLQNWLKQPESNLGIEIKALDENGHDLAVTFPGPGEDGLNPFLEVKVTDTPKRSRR
T1 sequence 2: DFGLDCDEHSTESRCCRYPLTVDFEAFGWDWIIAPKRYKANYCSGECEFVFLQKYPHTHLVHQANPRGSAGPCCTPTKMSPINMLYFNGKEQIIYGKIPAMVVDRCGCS

T2: Human latent myostatin (human, UniProt O14793 25-266; O14793 267-375)
T2 construct: also called human myostatin latent form
T2 sequence 1: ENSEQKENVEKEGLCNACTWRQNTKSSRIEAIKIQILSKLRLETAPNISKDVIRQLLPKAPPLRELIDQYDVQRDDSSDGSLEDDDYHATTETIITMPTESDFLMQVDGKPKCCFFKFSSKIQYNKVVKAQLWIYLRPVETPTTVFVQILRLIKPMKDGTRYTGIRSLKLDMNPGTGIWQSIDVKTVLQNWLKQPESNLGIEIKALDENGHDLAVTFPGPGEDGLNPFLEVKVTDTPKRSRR
T2 sequence 2: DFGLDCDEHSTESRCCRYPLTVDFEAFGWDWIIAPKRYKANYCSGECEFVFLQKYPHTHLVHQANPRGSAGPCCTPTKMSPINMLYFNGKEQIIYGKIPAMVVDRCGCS

T3: Mouse latent myostatin (mouse, UniProt O08689 26-267; O08689 268-376)
T3 construct: Latent form = complex of two propeptides and the mature dimer
T3 sequence 1: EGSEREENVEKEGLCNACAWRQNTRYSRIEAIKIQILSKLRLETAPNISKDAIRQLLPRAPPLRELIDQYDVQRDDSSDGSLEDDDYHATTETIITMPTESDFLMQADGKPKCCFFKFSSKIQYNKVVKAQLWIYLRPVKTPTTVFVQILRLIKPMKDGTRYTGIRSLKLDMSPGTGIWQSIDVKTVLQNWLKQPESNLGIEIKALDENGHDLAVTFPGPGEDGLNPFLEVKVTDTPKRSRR
T3 sequence 2: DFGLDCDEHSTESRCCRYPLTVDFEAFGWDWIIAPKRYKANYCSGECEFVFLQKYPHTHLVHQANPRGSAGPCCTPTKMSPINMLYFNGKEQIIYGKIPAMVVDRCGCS


Columns and labels:
[1] = target: T1, Cynomolgus monkey latent myostatin; assay: SPR (BIACORE T200) 37C, pH 5.8, antibody captured by ProA/G
Method: (§1) ProA/G (Pierce) was immobilized onto all flow cells of a CM4 chip using an amine coupling kit (GE Healthcare). All antibodies and analytes were prepared in ACES pH7.4 or pH5.8 buffer containing 20 mM ACES, 150 mM NaCl, 1.2 mM CaCl₂, 0.05% TWEEN®) 20, 0.005% NaN₃. […] Human, cyno, and mouse latent myostatin was injected at 3.125 to 50 nM prepared by two-fold serial dilution, followed by dissociation. The sensor surface was regenerated each cycle with 10 mM Glycine HCl pH1.5. Binding affinity was determined by processing and fitting the data to a 1:1 binding model using BIACORE® T200 Evaluation software, version 2.0 (GE Healthcare).

[2] = target: T2, Human latent myostatin; assay: SPR (BIACORE T200) 37C, pH 7.4, antibody captured by ProA/G
Method: as §1

[3] = target: T3, Mouse latent myostatin; assay: as above
Method: as §1

[4] = target: T1, Cynomolgus monkey latent myostatin; assay: as above
Method: as §1

[5] = target: T1, Cynomolgus monkey latent myostatin; assay: SPR 37C; KD pH 5.8 / KD pH 7.4
Method: as §1

[6] = target: T2, Human latent myostatin; assay: SPR (BIACORE T200) 37C, pH 5.8, antibody captured by ProA/G
Method: as §1

[7] = target: T2, Human latent myostatin; assay: SPR 37C; KD pH 5.8 / KD pH 7.4
Method: as §1

Row | Kd [1] [nM] | Kd [2] [nM] | Kd [3] [nM] | Kd [4] [nM] | ratio of KD at pH 5.8/pH 7.4 [5] | Kd [6] [nM] | ratio of KD at pH 5.8/pH 7.4 [7] | Binder
1 | 80.9 | 0.329 | 0.272 | 0.354 | 229 | – | – | MS_M103205H1186-SG1/M103202L889-SK1 (antibody, human IgG1, kappa, V domains shown, also called MS1032LO18-SG1) VH: QVTLKESGPVLVKPTETLTLTCTVSGIDLSHDDISWVRQAPGKGLEWVGIISYAGKKYYASWAKGRLTISKDTSKNQVVLTMTNMDPVDTATYYCARGVPAYSHGGDLWGQGTLVTVSS VL: DIVMTQSPATLSLSPGERATLSCTSSQSVYHANWLSWFQQKPGQPPKLLIYWASTLAYGVPSRFSGSGSGTDFTLTISSLQPEDAATYYCAGGYGGGRYAFGQGTKVEIKR
2 | 31 | 0.257 | – | 0.309 | 100 | 52.3 | 204 | MS_M103245H795-SG1/M103202L1045-SK1 (antibody, human IgG1, kappa, V domains shown, also called MS1032LO21-SG1) VH: QVTLKESGPVLVKPTETLTLTCKVSGIDLSHDDISWVRQAPGKGLEWVSIISYAGSTYYASWAKGRLTISKDTSKNQVVLTMTNMDPVDTATYYCARGVPAYSHGGDLWGQGTLVTVSS VL: DIVMTQSPATLSLSPGERATLSCTTSQSVYHENWLSWFQQKPGQPPKLLIYWASTLAYGVPSRFSGSGSGTDFTLTISSLQPEDAATYYCAGGYGGGRYAFGQGTKVEIKR
